Measurements taken from patent CN117050178A (BEIJING BIOSYSTEMS BIOLOGICAL TECH CO LTD, dated 2023).

What was measured:
人源GM-CSF蛋白 = 人源GM-CSF蛋白 (human, UniProt P04141 18-144); assay: indirect ELISA, cell supernatant on coated cytokine
人源TNF-alpha蛋白 = 人源TNF-alpha蛋白 (human, UniProt P01375 77-233); assay: as above
人源IL-2蛋白 = 人源IL-2蛋白 (human, UniProt P60568 21-153); assay: as above
人源IL-4蛋白 = biological target: T1, 人源IL-4蛋白 (human, UniProt P05112 25-153); assay: as above
T1 sequence (looked up): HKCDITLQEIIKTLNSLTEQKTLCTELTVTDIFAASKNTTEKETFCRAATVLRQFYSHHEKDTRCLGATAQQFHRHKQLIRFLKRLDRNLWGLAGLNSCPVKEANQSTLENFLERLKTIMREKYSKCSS

人源IL-6蛋白 = 人源IL-6蛋白 (human, UniProt P05231 30-212); assay: as above
人源IL-10蛋白 = 人源IL-10蛋白 (human, UniProt P22301 19-178); assay: as above
人源IL-15蛋白 = 人源IL-15蛋白 (human, UniProt P40933 49-162); assay: as above
人源IL-21蛋白 = 人源IL-21蛋白 (human, UniProt Q9HBE4 32-162, limits assumed); assay: as above
人IL-7蛋白 = biological target: T2, 人IL-7蛋白 (human, UniProt P13232 26-177); assay: indirect ELISA, cell supernatant on coated human IL-7 (2 μg/mL)
T2 construct: also called 人源IL-7
T2 sequence (looked up): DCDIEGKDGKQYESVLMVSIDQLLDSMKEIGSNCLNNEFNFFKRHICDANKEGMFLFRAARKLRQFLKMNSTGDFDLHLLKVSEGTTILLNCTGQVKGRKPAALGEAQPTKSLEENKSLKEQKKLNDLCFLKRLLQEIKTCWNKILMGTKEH

Chain of 人源IL-2蛋白 (P60568 21-153 limits assumed): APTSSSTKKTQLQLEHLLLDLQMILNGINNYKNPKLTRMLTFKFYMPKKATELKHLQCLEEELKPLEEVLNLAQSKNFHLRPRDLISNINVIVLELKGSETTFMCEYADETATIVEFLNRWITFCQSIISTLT
Chain of 人源IL-10蛋白 (P22301 19-178 limits assumed): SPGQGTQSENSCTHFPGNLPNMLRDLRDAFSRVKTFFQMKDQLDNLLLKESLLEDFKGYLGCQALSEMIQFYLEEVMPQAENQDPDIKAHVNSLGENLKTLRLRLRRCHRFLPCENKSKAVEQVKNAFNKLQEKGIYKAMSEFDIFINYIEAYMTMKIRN
Chain of 人源TNF-alpha蛋白 (P01375 77-233 limits assumed): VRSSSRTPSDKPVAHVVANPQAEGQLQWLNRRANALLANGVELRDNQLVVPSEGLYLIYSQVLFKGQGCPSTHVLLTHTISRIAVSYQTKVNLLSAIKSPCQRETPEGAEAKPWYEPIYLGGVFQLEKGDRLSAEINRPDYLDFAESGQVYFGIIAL
Chain of 人源IL-21蛋白 (Q9HBE4 32-162 limits assumed): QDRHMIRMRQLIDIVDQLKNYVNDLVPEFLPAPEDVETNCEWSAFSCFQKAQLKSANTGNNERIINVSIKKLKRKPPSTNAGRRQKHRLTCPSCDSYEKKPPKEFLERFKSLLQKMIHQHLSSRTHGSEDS
Chain of 人源IL-15蛋白 (P40933 49-162 limits assumed): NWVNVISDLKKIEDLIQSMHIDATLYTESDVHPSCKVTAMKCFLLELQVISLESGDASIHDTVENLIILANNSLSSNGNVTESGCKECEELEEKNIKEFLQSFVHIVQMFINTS
Chain of 人源GM-CSF蛋白 (P04141 18-144 limits assumed): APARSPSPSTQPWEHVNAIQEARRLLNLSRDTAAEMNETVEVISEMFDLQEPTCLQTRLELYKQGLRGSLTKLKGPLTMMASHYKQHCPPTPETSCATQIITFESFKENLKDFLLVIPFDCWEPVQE

binding result (人IL-7蛋白): binds
B1: 抗体8E8B10 (antibody, V domains shown)
VH: QVQLQQPGAELLRPGASVKLSCKTSGFTFTRYWINWVKQRPGQGLEWIGMIDPFDSETHYNQVFKDKATLTVDKSSSTAYMYMSSLTSEDSAVYYCARYFVYFDTVDFWGQGTSLTVSS
VL: DVVMTQTPLSLPVSLGGQASISCRSGQSLVHSDGNTYLHWYLQRPGQSPKLLIYKVSNRFSGVPDRFSGSGSGTNFTLKISRVEAEDLGVYFCSQNTHVPYTFGGGTKLEMK
notes: Mouse hybridoma monoclonal antibody; also called Clone 8E8B10; 克隆号8E8B10
binding result (人源GM-CSF蛋白): no binding (tested: antigen coated at 2 μg/mL) | binding result (人源TNF-alpha蛋白): no binding (tested: antigen coated at 2 μg/mL) | binding result (人源IL-2蛋白): no binding (tested: antigen coated at 2 μg/mL) | binding result (人源IL-4蛋白): no binding (tested: antigen coated at 2 μg/mL) | binding result (人源IL-6蛋白): no binding (tested: antigen coated at 2 μg/mL) | binding result (人源IL-10蛋白): no binding (tested: antigen coated at 2 μg/mL) | binding result (人源IL-15蛋白): no binding (tested: antigen coated at 2 μg/mL) | binding result (人源IL-21蛋白): no binding (tested: antigen coated at 2 μg/mL)
